Data on 66 molecules can be found in patent US20040018971A1.

One assay deals with HLA-A*2401 (human). Put plainly: inhibition of 125I probe peptide binding to purified HLA; IC50 standard/IC50 test.
Assay [1] has as its target HLA-A*2401 (purified HLA class I molecule) (human). Put plainly: competition with 125I-labelled probe peptide for purified HLA, gel filtration. The conditions noted are these: for relative binding ratio: scale: ratio.

B1: HER2/neu 408-415 (peptide)
peptide: GYLYISAW
Consider B1, for which the relative binding ratio with HLA-A*2401 (human) was found to be 0.0044.

B2: HER2/neu 1091-1101 (peptide)
peptide: GMGAAKGLQSL
Take B2: the relative binding ratio with HLA-A*2401 (human) is -0.0003.

B3: HER2/neu 1111-1120 (peptide)
peptide: RYSEDPTVPL
Take B3: the relative binding ratio with HLA-A*2401 (human) amounted to 0.012.

B4: HER2/neu 363-371 (peptide)
peptide: EFAGCKKIF
With B4, in the assay with HLA-A*2401 (human), the relative binding ratio turned out to be 0.0003.

B5: HER2/neu 922-931 (peptide)
peptide: PYDGIPAREI
With B5, the relative binding ratio with HLA-A*2401 (human) turned out to be 0.0005.

B6: HER2/neu 399-406 (peptide)
peptide: VFETLEEI
Consider B6, for which the relative binding ratio in the assay with HLA-A*2401 (human) was -0.0003.

B7: HER2/neu 107-114 (peptide)
peptide: LFEDNYAL
For the molecule B7, the relative binding ratio with HLA-A*2401 (human) came out at 0.0006.

B8: HER2/neu 8-15 (peptide)
peptide: RWGLLLAL
Regarding B8, the relative binding ratio in the assay with HLA-A*2401 (human) was determined as 0.025.

B9: HER2/neu 107-117 (peptide)
peptide: LFEDNYALAVL
For the molecule B9, the relative binding ratio with HLA-A*2401 (human) came out at 0.0006.

B10: HER2/neu 876-886 (peptide)
peptide: EYHADGGKVPI
As to B10, the relative binding ratio with HLA-A*2401 (human) is -0.0003.

B11: HER2/neu 342-350 (peptide)
peptide: CYGLGMEHL
Take B11: the relative binding ratio with HLA-A*2401 (human) is 0.018.

B12: HER2/neu 780-788 (peptide)
peptide: PYVSRLLGI
On to B12, for which, in the assay with HLA-A*2401 (human), the relative binding ratio turned out to be 0.17.

B13: HER2/neu 609-616 (peptide)
peptide: SYMPIWKF
For the molecule B13, the relative binding ratio in the assay with HLA-A*2401 (human) was 0.32.

B14: HER2/neu 363-370 (peptide)
peptide: EFAGCKKI
Turning to B14, in the assay with HLA-A*2401 (human), the relative binding ratio was -0.0003.

B15: HER2/neu 553-561 (peptide)
peptide: EYVNARHCL
B15: in the assay with HLA-A*2401 (human), the relative binding ratio amounted to 0.0061.

B16: HER2/neu 197-205 (peptide)
peptide: PMCKGSRCW
On to B16, for which the relative binding ratio with HLA-A*2401 (human) amounted to 0.0011.

B17: HER2/neu 1091-1098 (peptide)
peptide: GMGAAKGL
As to B17, in the assay with HLA-A*2401 (human), the relative binding ratio was -0.0003.

B18: HER2/neu 834-841 (peptide)
peptide: SYLEDVRL
For B18, the relative binding ratio with HLA-A*2401 (human) stood at 0.0059.

B19: HER2/neu 730-738 (peptide)
peptide: AFGTVYKGI
For the molecule B19, the relative binding ratio with HLA-A*2401 (human) turned out to be 0.0002.

B20: HER2/neu 162-169 (peptide)
peptide: CYQDTILW
With B20, the relative binding ratio with HLA-A*2401 (human) stood at 0.012.

B21: HER2/neu 424-431 (peptide)
peptide: VFQNLQVI
Regarding B21, the relative binding ratio with HLA-A*2401 (human) was -0.0003.

B22: HER2/neu 905-915 (peptide)
peptide: VWSYGVTVWEL
On to B22, for which, in the assay with HLA-A*2401 (human), the relative binding ratio worked out at 0.092.

B23: HER2/neu 686-696 (peptide)
peptide: TMRRLLQETEL
On to B23, for which the relative binding ratio with HLA-A*2401 (human) was -0.0003.

B24: HER2/neu 887-895 (peptide)
peptide: KWMALESIL
As for B24, in the assay with HLA-A*2401 (human), the relative binding ratio was determined as 0.015.

B25: HER2/neu 485-493 (peptide)
peptide: LFRNPHQAL
In the case of B25, the relative binding ratio in the assay with HLA-A*2401 (human) was found to be 0.0002.

B26: HER2/neu 440-450 (peptide)
peptide: AYSLTLQGLGI
Turning to B26, in the assay with HLA-A*2401 (human), the relative binding ratio worked out at 0.023.

B27: HER2/neu 410-419 (peptide)
peptide: LYISAWPDSL
On to B27, for which, in the assay with HLA-A*2401 (human), the relative binding ratio turned out to be 0.084.

B28: HER2/neu 1022-1031 (peptide)
peptide: EYLVPQQGFF
With B28, the relative binding ratio with HLA-A*2401 (human) was 0.012.

B29: HER2/neu 738-748 (peptide)
peptide: IWIPDGENVKI
With B29, the relative binding ratio with HLA-A*2401 (human) came to 0.0027.

B30: HER2/neu 730-739 (peptide)
peptide: AFGTVYKGIW
As to B30, the relative binding ratio with HLA-A*2401 (human) turned out to be 0.001.

B31: HER2/neu 978-986 (peptide)
peptide: RMARDPQRF
For the molecule B31, in the assay with HLA-A*2401 (human), the relative binding ratio stood at 0.0032.

B32: HER2/neu 451-459 (peptide)
peptide: SWLGLRSLR
In the case of B32, the relative binding ratio with HLA-A*2401 (human) is -0.0003.

B33: HER2/neu 63-71 (peptide)
peptide: TYLPTNASL
B33: in the assay with HLA-A*2401 (human), the relative binding ratio turned out to be 0.038.

B34: HER2/neu 257-266 (peptide)
peptide: HFNHSGICEL
As for B34, the relative binding ratio with HLA-A*2401 (human) worked out at 0.0002.

B35: HER2/neu 370-377 (peptide)
peptide: IFGSLAFL
As to B35, the relative binding ratio with HLA-A*2401 (human) came to 0.012.

B36: HER2/neu 887-894 (peptide)
peptide: KWMALESI
For the molecule B36, the relative binding ratio in the assay with HLA-A*2401 (human) stood at 0.008.

B37: HER2/neu peptide, position 951, 9 amino acids (peptide)
peptide: VYMIMVKCW
Take B37: in assay [1], the relative binding ratio (IC50 of standard peptide / IC50 of test peptide) came to 0.16 and the relative binding ratio was determined as 0.16.

B38: HER2/neu 172-179 (peptide)
peptide: IFHKNNQL
With B38, the relative binding ratio with HLA-A*2401 (human) was -0.0003.

B39: HER2/neu peptide, position 951, 11 amino acids (peptide)
peptide: VYMIMVKCWMI
As to B39, in assay [1], the relative binding ratio (IC50 of standard peptide / IC50 of test peptide) was determined as 1.8 and the relative binding ratio was 1.8.

B40: HER2/neu 8-16 (peptide)
peptide: RWGLLLALL
For B40, the relative binding ratio with HLA-A*2401 (human) was 1.3.

B41: HER2/neu 907-915 (peptide)
peptide: SYGVTVWEL
B41: the relative binding ratio with HLA-A*2401 (human) came out at 0.12.

B42: HER2/neu 440-448 (peptide)
peptide: AYSLTLQGL
As to B42, the relative binding ratio in the assay with HLA-A*2401 (human) amounted to 0.13.

B43: HER2/neu peptide, position 888, 8 amino acids (peptide)
peptide: WMALESIL
Turning to B43, in assay [1], the relative binding ratio (IC50 of standard peptide / IC50 of test peptide) is -0.0003 and the relative binding ratio is -0.0003.

B44: HER2/neu 826-836 (peptide)
peptide: CMQIAKGMSYL
With B44, the relative binding ratio with HLA-A*2401 (human) is -0.0003.

B45: HER2/neu 1212-1220 (peptide)
peptide: AFSPAFDNL
With B45, in the assay with HLA-A*2401 (human), the relative binding ratio was 0.0011.

B46: HER2/neu 684-691 (peptide)
peptide: KYTMRRLL
On to B46, for which the relative binding ratio with HLA-A*2401 (human) is 0.0024.

B47: HER2/neu 1022-1030 (peptide)
peptide: EYLVPQQGF
As to B47, in the assay with HLA-A*2401 (human), the relative binding ratio was found to be 0.0014.

B48: HER2/neu 898-906 (peptide)
peptide: RFTHQSDVW
As to B48, in the assay with HLA-A*2401 (human), the relative binding ratio is 0.011.

B49: HER2/neu 863-870 (peptide)
peptide: DFGLARLL
Consider B49, for which, in the assay with HLA-A*2401 (human), the relative binding ratio is 0.0005.

B50: HER2/neu 730-740 (peptide)
peptide: AFGTVYKGIWI
Consider B50, for which, in the assay with HLA-A*2401 (human), the relative binding ratio came to 0.0008.

B51: HER2/neu 863-872 (peptide)
peptide: DFGLARLLDI
As to B51, the relative binding ratio with HLA-A*2401 (human) was 0.0002.

B52: HER2/neu 905-913 (peptide)
peptide: VWSYGVTVW
For B52, the relative binding ratio with HLA-A*2401 (human) turned out to be 0.08.

B53: HER2/neu 162-172 (peptide)
peptide: CYQDTILWKDI
As for B53, in the assay with HLA-A*2401 (human), the relative binding ratio was 0.0016.

B54: HER2/neu 281-291 (peptide)
peptide: SMPNPEGRYTF
In the case of B54, the relative binding ratio with HLA-A*2401 (human) worked out at 0.018.

B55: HER2/neu 475-482 (peptide)
peptide: CFVHTVPW
In the case of B55, the relative binding ratio with HLA-A*2401 (human) is 0.019.

B56: HER2/neu 485-494 (peptide)
peptide: LFRNPHQALL
Regarding B56, the relative binding ratio in the assay with HLA-A*2401 (human) came out at 0.0014.

B57: HER2/neu 800-807 (peptide)
peptide: LMPYGCLL
Take B57: in the assay with HLA-A*2401 (human), the relative binding ratio came to 0.0076.

B58: HER2/neu 917-926 (peptide)
peptide: TFGAKPYDGI
Consider B58, for which the relative binding ratio with HLA-A*2401 (human) worked out at 0.0002.

B59: HER2/neu 968-976 (peptide)
peptide: RFRELVSEF
B59: the relative binding ratio with HLA-A*2401 (human) was 0.018.

B60: HER2/neu 414-422 (peptide)
peptide: AWPDSLPDL
Turning to B60, in the assay with HLA-A*2401 (human), the relative binding ratio is 0.0041.

B61: HER2/neu 954-961 (peptide)
peptide: IMVKCWMI
With B61, the relative binding ratio in the assay with HLA-A*2401 (human) was 0.021.

B62: HER2/neu 1216-1223 (peptide)
peptide: AFDNLYYW
On to B62, for which the relative binding ratio with HLA-A*2401 (human) came to 0.0039.

B63: HER2/neu 451-461 (peptide)
peptide: SWLGLRSLREL
Take B63: the relative binding ratio with HLA-A*2401 (human) came to 0.0036.

B64: HER2/neu 985-994 (peptide)
peptide: RFVVIQNEDL
As to B64, in the assay with HLA-A*2401 (human), the relative binding ratio is 0.0002.

B65: HER2/neu 63-73 (peptide)
peptide: TYLPTNASLSF
Turning to B65, the relative binding ratio in the assay with HLA-A*2401 (human) came out at 8.9.

B66: HER2/neu 475-485 (peptide)
peptide: CFVHTVPWDQL
Turning to B66, the relative binding ratio with HLA-A*2401 (human) is 0.0003.
